According to publication PMC5914118, “Exploiting the Concept of Multivalency with ^68Ga- and ^89Zr-Labelled Fusarinine C-Minigastrin Bioconjugates for Targeting CCK2R Expression” (Contrast Media & Molecular Imaging, 2018):
Where two headings read alike, the source gives them in different places. Marks after values point to notes of the source that are not given here.

What was measured:
[1] = tested on: A431-CCK2R/A431-mock tumour xenografted BALB/c nude mice; details: mouse, in vivo
Method: All animal experiments were conducted in compliance with the Austrian and Dutch animal protection laws and with approval of the Austrian Ministry of Science (BMWF-66.011/000604-II/3b/2012 and BMWFW-66.011/0049-WF/II/3b/2014). In vivo stability studies were conducted in 5-week-old female BALB/c mice (in-house breed, ZVTA Innsbruck, Dr. Hermann Dietrich). The biodistribution studies were performed using female 8−10-week-old athymic BALB/c nude mice (Charles River Laboratories, Sulzfeld, Germany). Tumour xenografts were induced by subcutaneous injection of 2 × 10^6 A431-CCK2R cells (receptor positive) in the right and the same amount of A431-mock (receptor negative) in the left flank. Tumours were allowed to grow until they had reached a volume of 0.3–0.6 cm^3. To evaluate the biodistribution profile nude mice (n = 4) were intravenously injected with either 1-2 MBq ^68Ga- or 0.3 MBq ^89Zr-labelled mono-, di-, and trimer (0.1–0.2 nmol). The animals were sacrificed by cervical dislocation after 1 h as well as 2 h and 4 h in case of ^68Ga- and ^89Zr-labelled trimer, followed by the collection of organs and tissue. The collected samples were measured in the gamma counter and the results were calculated as percentage of injected dose per gram tissue (% ID/g).

[2] = type: physicochemical
Method: Aliquots (50 μL) of ^68Ga- and ^89Zr-labelled mono-, di-, and trimer (10 μM) were diluted in 450 μL PBS. After adding 500 μL octanol the mixture was vortexed with 1400 rpm (MS 3 basic vortexer, IKA, Staufen, Germany) for 15 min at RT followed by centrifugation for 2 min at 4500 rpm. Subsequently, 100 μL aliquots of the organic and the aqueous layer were collected and logD values were calculated using Excel (n = 3, six replicates) after gamma counter measurement.

Compound: CSCC[C@H](NC(=O)[C@H](Cc1c[nH]c2ccccc12)NC(=O)CNC(=O)[C@H](Cc1ccc(O)cc1)NC(=O)[C@H](C)NC(=O)[C@@H](CCC(=O)O)NC(=O)CCSC1CC(=O)N(CCC(=O)NC2CCCN(O)C(=O)C=C(C)CCOC(=O)C(NC(=O)CCN3C(=O)CC(SCCC(=O)N[C@H](CCC(=O)O)C(=O)N[C@@H](C)C(=O)N[C@@H](Cc4ccc(O)cc4)C(=O)NCC(=O)N[C@@H](Cc4c[nH]c5ccccc45)C(=O)N[C@@H](CCSC)C(=O)N[C@@H](CC(=O)O)C(=O)N[C@@H](Cc4ccccc4)C(N)=O)C3=O)CCCN(O)C(=O)C=C(C)CCOC(=O)C(NC(C)=O)CCCN(O)C(=O)C=C(C)CCOC2=O)C1=O)C(=O)N[C@@H](CC(=O)O)C(=O)N[C@@H](Cc1ccccc1)C(N)=O (stereo partly drawn) [^68Ga-labelled Dimer, metal not drawn]
- Tumour-to-organ ratio (T/O): A431-mock [1]: 17.9 ± 6.1^c
- Tumour-to-organ ratio (T/O): Blood [1]: 16.0 ± 3.1^cd
- Tumour-to-organ ratio (T/O): Bone [1]: 11.6 ± 1.9^c
- Tumour-to-organ ratio (T/O): Heart [1]: 27.2 ± 4.8^cd
- Tumour-to-organ ratio (T/O): Intestine [1]: 19.9 ± 4.9^acd
- Tumour-to-organ ratio (T/O): Kidneys [1]: 0.30 ± 0.06^cd
- Tumour-to-organ ratio (T/O): Liver [1]: 11.1 ± 2.4^c
- Tumour-to-organ ratio (T/O): Lung [1]: 14.4 ± 2.3^cd
- Tumour-to-organ ratio (T/O): Muscle [1]: 31.4 ± 13.2^cd
- Tumour-to-organ ratio (T/O): Pancreas [1]: 17.9 ± 3.2^cd
- Tumour-to-organ ratio (T/O): Spleen [1]: 23.1 ± 4.2^cd
- Tumour-to-organ ratio (T/O): Stomach [1]: 4.0 ± 0.5^c
- Biodistribution: A431-CCK2R tumour (receptor positive) ([1]; 1 h): 8.36 ± 0.90^ac % ID/g
- Biodistribution: A431-mock tumour (receptor negative) ([1]; 1 h): 0.36 ± 0.22^cd % ID/g
- Biodistribution: Blood ([1]; 1 h): 0.53 ± 0.06^cd % ID/g
- Biodistribution: Bone ([1]; 1 h): 0.60 ± 0.21^cd % ID/g
- Biodistribution: Heart ([1]; 1 h): 0.31 ± 0.04^cd % ID/g
- Biodistribution: Intestine ([1]; 1 h): 0.44 ± 0.06^c % ID/g
- Biodistribution: Kidneys ([1]; 1 h): 28.9 ± 3.4^cd % ID/g
- Biodistribution: Liver ([1]; 1 h): 0.78 ± 0.09^c % ID/g
- Biodistribution: Lung ([1]; 1 h): 0.59 ± 0.08^cd % ID/g
- Biodistribution: Muscle ([1]; 1 h): 0.30 ± 0.08^cd % ID/g
- Biodistribution: Pancreas ([1]; 1 h): 0.48 ± 0.06^cd % ID/g
- Biodistribution: Spleen ([1]; 1 h): 0.37 ± 0.04^cd % ID/g
- Biodistribution: Stomach ([1]; 1 h): 2.13 ± 0.23^c % ID/g
- Distribution coefficient logD (pH 7.4) [2]: −2.38 ± 0.04

Compound: CSCC[C@H](NC(=O)[C@H](Cc1c[nH]c2ccccc12)NC(=O)CNC(=O)[C@H](Cc1ccc(O)cc1)NC(=O)[C@H](C)NC(=O)[C@@H](CCC(=O)O)NC(=O)CCSC1CC(=O)N(CCC(=O)NC2CCCN(O)C(=O)C=C(C)CCOC(=O)C(NC(=O)CCN3C(=O)CC(SCCC(=O)N[C@H](CCC(=O)O)C(=O)N[C@@H](C)C(=O)N[C@@H](Cc4ccc(O)cc4)C(=O)NCC(=O)N[C@@H](Cc4c[nH]c5ccccc45)C(=O)N[C@@H](CCSC)C(=O)N[C@@H](CC(=O)O)C(=O)N[C@@H](Cc4ccccc4)C(N)=O)C3=O)CCCN(O)C(=O)C=C(C)CCOC(=O)C(NC(=O)CCN3C(=O)CC(SCCC(=O)N[C@H](CCC(=O)O)C(=O)N[C@@H](C)C(=O)N[C@@H](Cc4ccc(O)cc4)C(=O)NCC(=O)N[C@@H](Cc4c[nH]c5ccccc45)C(=O)N[C@@H](CCSC)C(=O)N[C@@H](CC(=O)O)C(=O)N[C@@H](Cc4ccccc4)C(N)=O)C3=O)CCCN(O)C(=O)C=C(C)CCOC2=O)C1=O)C(=O)N[C@@H](CC(=O)O)C(=O)N[C@@H](Cc1ccccc1)C(N)=O (stereo partly drawn) [^89Zr-labelled Trimer, metal not drawn]
- Biodistribution: A431-CCK2R tumour (receptor positive) ([1]; 1 h): 4.28 ± 0.95^b % ID/g
- Biodistribution: A431-mock tumour (receptor negative) ([1]; 1 h): 0.81 ± 0.24^d % ID/g
- Biodistribution: Blood ([1]; 1 h): 1.46 ± 0.32^d % ID/g
- Biodistribution: Bone ([1]; 1 h): 1.39 ± 0.65 % ID/g
- Biodistribution: Heart ([1]; 1 h): 0.92 ± 0.21^d % ID/g
- Biodistribution: Intestine ([1]; 1 h): 0.56 ± 0.14^d % ID/g
- Biodistribution: Kidneys ([1]; 1 h): 57.7 ± 14.4^e % ID/g
- Biodistribution: Liver ([1]; 1 h): 0.84 ± 0.21^d % ID/g
- Biodistribution: Lung ([1]; 1 h): 1.44 ± 0.39^d % ID/g
- Biodistribution: Muscle ([1]; 1 h): 0.47 ± 0.18^cd % ID/g
- Biodistribution: Pancreas ([1]; 1 h): 1.56 ± 0.44 % ID/g
- Biodistribution: Spleen ([1]; 1 h): 0.79 ± 0.23^d % ID/g
- Biodistribution: Stomach ([1]; 1 h): 3.10 ± 0.97 % ID/g
- Biodistribution: A431-CCK2R tumour (receptor positive) ([1]; 2 h): 8.90 ± 3.10^e % ID/g
- Biodistribution: A431-mock tumour (receptor negative) ([1]; 2 h): 0.93 ± 0.29^d % ID/g
- Biodistribution: Blood ([1]; 2 h): 1.19 ± 0.32^d % ID/g
- Biodistribution: Bone ([1]; 2 h): 2.07 ± 0.68 % ID/g
- Biodistribution: Heart ([1]; 2 h): 0.91 ± 0.25^d % ID/g
- Biodistribution: Intestine ([1]; 2 h): 0.44 ± 0.30^d % ID/g
- Biodistribution: Kidneys ([1]; 2 h): 96.5 ± 23.6^f % ID/g
- Biodistribution: Liver ([1]; 2 h): 1.28 ± 0.35^d % ID/g
- Biodistribution: Lung ([1]; 2 h): 1.21 ± 0.23^d % ID/g
- Biodistribution: Muscle ([1]; 2 h): 0.42 ± 0.07^d % ID/g
- Biodistribution: Pancreas ([1]; 2 h): 1.51 ± 0.40 % ID/g
- Biodistribution: Spleen ([1]; 2 h): 0.90 ± 0.25^d % ID/g
- Biodistribution: Stomach ([1]; 2 h): 3.15 ± 0.75 % ID/g
- Biodistribution: A431-CCK2R tumour (receptor positive) ([1]; 4 h): 14.39 ± 3.92 % ID/g
- Biodistribution: A431-mock tumour (receptor negative) ([1]; 4 h): 0.66 ± 0.06^d % ID/g
- Biodistribution: Blood ([1]; 4 h): 0.75 ± 0.26^d % ID/g
- Biodistribution: Bone ([1]; 4 h): 4.41 ± 1.31 % ID/g
- Biodistribution: Heart ([1]; 4 h): 0.91 ± 0.09^d % ID/g
- Biodistribution: Intestine ([1]; 4 h): 0.65 ± 0.07^d % ID/g
- Biodistribution: Kidneys ([1]; 4 h): 150.5 ± 18.3 % ID/g
- Biodistribution: Liver ([1]; 4 h): 1.71 ± 0.32^d % ID/g
- Biodistribution: Lung ([1]; 4 h): 0.84 ± 0.20^d % ID/g
- Biodistribution: Muscle ([1]; 4 h): 0.62 ± 0.23 % ID/g
- Biodistribution: Pancreas ([1]; 4 h): 2.34 ± 0.59 % ID/g
- Biodistribution: Spleen ([1]; 4 h): 0.95 ± 0.13^d % ID/g
- Biodistribution: Stomach ([1]; 4 h): 3.50 ± 0.86^d % ID/g
- Distribution coefficient logD (pH 7.4) [2]: −2.41 ± 0.04
